The values that follow come from article PMC11100828.

The target in the assay is human Nup153^CTD (C-terminal domain, aa 896-1485), MBP and SNAP-tag fusion protein (human). Kind of assay: negative-stain TEM, occupancy of NuPODs by capsids.

In turn, “HBV capsids assembled in vitro from wild type HBV core protein (HBc) (from UniProt P03146 1-183) (complex)” showed a percent of NuPODs occupied by at least one capsid of 90%.
